Source: publication PMC10611751 (2023)

B1: Ankyrin-G 24 ANK repeats (residues 38-855) (domain or fragment)
chain: KSDANASYLRAARAGHLEKALDYIKNGVDVNICNQNGLNALHLASKEGHVEVVSELLQREANVDAATKKGNTALHIASLAGQAEVVKVLVTNGANVNAQSQNGFTPLYMAAQENHLEVVRFLLDNGASQSLATEDGFTPLAVALQQGHDQVVSLLLENDTKGKVRLPALHIAARKDDTKAAALLLQNDTNADIESKMVVNRATESGFTPLHIAAHYGNINVATLLLNRAAAVDFTARNDITPLHVASKRGNANMVKLLLDRGAKIDAKTRDGLTPLHCGARSGHEQVVEMLLDRAAPILSKTKNGLSPLHMATQGDHLNCVQLLLQHNVPVDDVTNDYLTALHVAAHCGHYKVAKVLLDKKANPNAKALNGFTPLHIACKKNRIRVMELLLKHGASIQAVTESGLTPIHVAAFMGHVNIVSQLMHHGASPNTTNVRGETALHMAARSGQAEVVRYLVQDGAQVEAKAKDDQTPLHISARLGKADIVQQLLQQGASPNAATTSGYTPLHLSAREGHEDVAAFLLDHGASLSITTKKGFTPLHVAAKYGKLEVASLLLQKSASPDAAGKSGLTPLHVAAHYDNQKVALLLLDQGASPHAAAKNGYTPLHIAAKKNQMDIATSLLEYGADANAVTRQGIASVHLAAQEGHVDMVSLLLSRNANVNLSNKSGLTPLHLAAQEDRVNVAEVLVNQGAHVDAQTKMGYTPLHVGCHYGNIKIVNFLLQHSAKVNAKTKNGYTPLHQAAQQGHTHIINVLLQNNASPNELTVNGNTALAIARRLGYISVVDTLKVVTEEIMTTTTITEKHKMNVPETMNEVLDMS
B2: E-cadherin C-terminal domain (residues 734-884) (domain or fragment)
chain: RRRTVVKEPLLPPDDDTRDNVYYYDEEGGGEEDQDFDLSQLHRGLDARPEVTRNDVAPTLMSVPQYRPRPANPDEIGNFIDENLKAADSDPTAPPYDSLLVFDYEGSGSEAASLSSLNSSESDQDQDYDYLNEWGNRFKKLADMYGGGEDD

What was measured:
Assay in all cases: ITC
[1] = molecular target: E-cadherin CTD site-1, 3 to A (mouse, UniProt P09803 734-884, Y755A | Y756A | Y757A | Y861A | Y863A | W867A)
[2] = molecular target: E-cadherin CTD site-3 to A (mouse, UniProt P09803 734-884, Y861A | Y863A | W867A)
[3] = molecular target: E-cadherin CTD site-1 to A (mouse, UniProt P09803 734-884, Y755A | Y756A | Y757A)
[4] = molecular target: E-cadherin CTD site-2 to A (mouse, UniProt P09803 734-884, Y829A | Y837A)
[5] = molecular target: E-cadherin CTD site-2, 3 to A (mouse, UniProt P09803 734-884, Y829A | Y837A | Y861A | Y863A | W867A)
[6] = molecular target: E-cadherin CTD site-1, 2 to A (mouse, UniProt P09803 734-884, Y755A | Y756A | Y757A | Y829A | Y837A)
[7] = molecular target: T1, Ankyrin-G ANK repeats 8-14 (UniProt O70511 275-500)
T1 chain: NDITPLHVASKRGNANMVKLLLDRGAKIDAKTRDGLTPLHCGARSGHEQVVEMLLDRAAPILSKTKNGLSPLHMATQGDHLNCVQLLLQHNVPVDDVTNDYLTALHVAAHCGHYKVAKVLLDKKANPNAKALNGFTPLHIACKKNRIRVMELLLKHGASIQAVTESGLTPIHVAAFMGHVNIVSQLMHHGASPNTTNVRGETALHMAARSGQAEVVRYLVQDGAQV

[8] = molecular target: T2, AnkG R6-24 (Rattus norvegicus)
T2 chain: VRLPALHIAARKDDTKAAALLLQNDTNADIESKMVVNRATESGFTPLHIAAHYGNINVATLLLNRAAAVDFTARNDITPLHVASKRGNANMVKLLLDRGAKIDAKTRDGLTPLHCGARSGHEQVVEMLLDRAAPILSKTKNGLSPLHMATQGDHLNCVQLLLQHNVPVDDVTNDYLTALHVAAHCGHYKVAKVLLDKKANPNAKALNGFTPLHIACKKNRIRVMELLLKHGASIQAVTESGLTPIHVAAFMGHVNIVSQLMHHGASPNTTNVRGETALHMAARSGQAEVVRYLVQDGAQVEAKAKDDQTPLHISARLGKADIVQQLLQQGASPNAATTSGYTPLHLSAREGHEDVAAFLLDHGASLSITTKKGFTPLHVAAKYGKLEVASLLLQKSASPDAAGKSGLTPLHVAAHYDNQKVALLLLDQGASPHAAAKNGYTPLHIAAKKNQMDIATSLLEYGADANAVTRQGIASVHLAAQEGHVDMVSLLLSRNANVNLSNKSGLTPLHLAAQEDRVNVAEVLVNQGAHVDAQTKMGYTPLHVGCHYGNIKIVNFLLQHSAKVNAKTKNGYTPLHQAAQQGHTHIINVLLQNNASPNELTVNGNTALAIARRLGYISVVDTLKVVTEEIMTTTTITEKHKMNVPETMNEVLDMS

[9] = molecular target: T3, p120 catenin 324-938 (mouse, UniProt P30999 324-938)
T3 chain: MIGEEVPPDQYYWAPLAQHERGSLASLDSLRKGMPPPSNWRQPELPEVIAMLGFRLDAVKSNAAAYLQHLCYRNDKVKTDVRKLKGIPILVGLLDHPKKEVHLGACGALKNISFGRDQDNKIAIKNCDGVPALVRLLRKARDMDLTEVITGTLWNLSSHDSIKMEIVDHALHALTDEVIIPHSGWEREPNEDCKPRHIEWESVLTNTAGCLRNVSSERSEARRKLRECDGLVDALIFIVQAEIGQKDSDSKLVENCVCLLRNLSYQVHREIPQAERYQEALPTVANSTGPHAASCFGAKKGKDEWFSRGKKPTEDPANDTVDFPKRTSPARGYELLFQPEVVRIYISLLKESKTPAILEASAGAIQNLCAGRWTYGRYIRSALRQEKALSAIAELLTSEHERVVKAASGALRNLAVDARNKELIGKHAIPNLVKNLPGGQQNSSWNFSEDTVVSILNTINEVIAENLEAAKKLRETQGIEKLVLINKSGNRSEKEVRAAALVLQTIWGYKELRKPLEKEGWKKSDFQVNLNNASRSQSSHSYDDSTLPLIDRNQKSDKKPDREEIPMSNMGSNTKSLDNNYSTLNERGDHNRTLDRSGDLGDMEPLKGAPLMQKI

[10] = molecular target: T4, full-length β-catenin 1-781 (mouse, UniProt Q02248 1-781)
T4 chain: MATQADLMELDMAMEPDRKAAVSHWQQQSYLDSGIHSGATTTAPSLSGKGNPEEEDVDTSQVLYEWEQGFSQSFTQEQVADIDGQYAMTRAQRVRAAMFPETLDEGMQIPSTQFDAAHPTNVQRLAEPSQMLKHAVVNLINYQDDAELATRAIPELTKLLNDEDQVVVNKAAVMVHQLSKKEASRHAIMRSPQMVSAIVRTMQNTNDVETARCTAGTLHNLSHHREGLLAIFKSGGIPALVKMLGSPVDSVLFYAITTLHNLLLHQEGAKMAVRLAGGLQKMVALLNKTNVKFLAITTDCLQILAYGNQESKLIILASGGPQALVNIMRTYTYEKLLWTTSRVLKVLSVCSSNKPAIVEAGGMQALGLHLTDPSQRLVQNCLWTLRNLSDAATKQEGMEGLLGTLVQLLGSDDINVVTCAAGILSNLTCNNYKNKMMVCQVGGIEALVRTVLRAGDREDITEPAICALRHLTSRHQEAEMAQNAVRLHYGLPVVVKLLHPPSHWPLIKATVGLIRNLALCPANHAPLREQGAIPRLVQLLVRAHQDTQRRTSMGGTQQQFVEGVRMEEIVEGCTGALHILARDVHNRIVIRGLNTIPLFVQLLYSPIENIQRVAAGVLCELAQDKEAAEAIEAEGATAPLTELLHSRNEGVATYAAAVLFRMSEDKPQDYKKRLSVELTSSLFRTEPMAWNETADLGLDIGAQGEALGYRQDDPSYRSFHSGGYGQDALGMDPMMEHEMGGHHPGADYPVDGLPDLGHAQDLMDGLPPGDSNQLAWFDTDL

[11] = molecular target: B1

Kd [1]	Kd [2]	Kd [3]	Kd [4]	Kd [5]	Kd [6]	Kd [7]	Kd [8]	Kd [9]	Kd [10]	Kd [11]	Binder
4.9 µM	4.2 µM	2 µM	2.9 µM	3.3 µM	6.3 µM	–	–	–	–	–	B1
–	–	–	–	–	–	5 µM	2.9 µM	1.7 µM	0.036 µM	2.8 µM	B2
